What all share (assay type): biochemical, Quillaja saponaria
Experiment [1] is described as follows: Experiment 5-1: screening of additional glucosidases for deglycosylation with purified QS-18 (0.04 mg/ml) at pH 7.5 and 30 deg C. As to conditions: pH 7.5, 30 degrees C, 18 hours, LCMS/MS. The protocol:
The 94 additional genes, together with positive control (DNA encoding SEQ ID No. 262) and negative control, were transformed, expressed, lysed and reacted in the same manner as described above for Experiment 4-1, except the reaction was incubated at 30 degrees C. for 18 hours.
Samples were analysed by LCMS/MS according to the procedure in Experiment 4-1.

Experiment [2] can be described thus: Experiment 5-3: screening of additional glucosidases for deglycosylation with QS-18 in treated bark extract (80%) at pH 6 and 35 deg C. As to conditions: TBE 80% (QS-21 approx. 4 g/L), pH 6, 35 deg C; UV HPLC. As to the method:
Experiment 5-1 was repeated, replacing CBE with Treated Bark Extract (TBE) at pH 6. TBE was prepared from CBE by PVPP treatment and concentration, to provide TBE with a QS-21 concentration of approximately 4 g/L. TBE was adjusted to pH 6 by dropwise addition of 2M NaOH with stirring.

Experiment [3] in a line: Experiment 5-2: screening of additional glucosidases for deglycosylation with QS-18 in crude bark extract (80%) at pH 6 and 35 deg C. As to conditions: CBE 80%, pH 6, 35 deg C, 18 hours; UV HPLC. The protocol:
A plate was lysed at pH 6 as described in Experiment 4-2. 40 uL of clarified lysate was transferred to a reaction plate
The pH of CBE was adjusted to pH 6 by dropwise addition of 2M NaOH with stirring. 160 uL of pH 6 CBE was added to each well of the reaction plate. The reaction plate was sealed and incubated at 35 deg C. with shaking for 18 hours.
The reaction plate was quenched by adding 200 uL of MeCN (2% acetic acid (AcOH), 1 mg/mL hexanophenone) to each well of the plates. The quenched reaction plate was re-sealed and incubated at 20 deg C. with shaking for 10 min. The reaction plate was then centrifuged (10 min, 4 degC).
200 uL was transferred from each well of the quenched plate to the corresponding wells of a fresh 96 well plate and sealed. The plate was analysed by UV HPLC with the method of Experiment 4-4.

The nature of experiment [4]: Experiment 6-1: specificity of rhamnosidases towards other rhamnose residues (C3 saccharide rhamnose, C28 saccharide rhamnose). As to conditions: TBE 2%, pH 7.5, 30 degC, 18 h; LCMS/MS; negative controls 0.18, 0.17.
Experiment [5] in a line: Experiment 6-1: screening of rhamnosidases for derhamnosylation of saponins in treated bark extract (2%), QS-17 2310 to QS-18 2164 (PAR %). As to conditions: TBE 2%, pH 7.5, 30 degC, 18 h; TIC peak area ratio percent, LCMS/MS; negative controls 3.061, 2.429.
The nature of experiment [6]: Experiment 6-1: screening of rhamnosidases for derhamnosylation of saponins in treated bark extract (2%), desglucosyl-QS-17 2134 to QS-21 1988 (PAR %). As to conditions: TBE 2%, pH 7.5, 30 degC, 18 h; TIC peak area ratio percent, LCMS/MS; negative controls 2.719, 2.158.
Experiment [7] in a line: Experiment 6-3: screening of rhamnosidases for derhamnosylation of saponins in crude bark extract (80%), relative % of Left, Middle and Right Peak by UV HPLC. As to conditions: CBE 80%, pH 7.4, 30 degC, 19.5 h. In a few lines:
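Clarified lysates of expressed rhamnosidase variants were incubated with crude bark extract (pH 7.4, final 80%) at 30 degC with shaking for 19.5 h, then quenched with MeCN+2% AcOH. UV HPLC gave relative % of Left (QS-17), Middle (QS-18/desglucosyl-QS-17) and Right (QS-21) peaks.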

Experiment [8] can be described thus: Experiment 6-1: screening of rhamnosidases for derhamnosylation of saponins in treated bark extract (2%), QS-17 2296 to QS-18 2150 (PAR %). As to conditions: TBE 2%, pH 7.5, 30 degC, 18 h; TIC peak area ratio percent of rhamnosylated starting saponin to derhamnosylated product, LCMS/MS; negative controls 4.876, 5.225.
Experiment [9] in a line: Experiment 6-2: screening of rhamnosidases for derhamnosylation of saponins in treated bark extract (25%), relative % of Left, Middle and Right Peak by UV HPLC. As to conditions: TBE 25%, pH 7.4, 19.5 h.
Setting [10] is: mainly QS-21 family, negative control 26%.

We go through 4 molecules from US20240026407A1, “MODIFICATION OF SAPONINS” (GLAXOSMITHKLINE BIOLOGICALS SA, priority 2020, published 2024).

B1: 881 (protein, listed as Treponema azotonutricium)
chain: MTSKEIIPQMTLEEKAALCSGRDFWSLKGIERFGLEAIMVTDGPHGLRKQGGDGDHLGLNQSVPATCFPAACATACSFDRSLLEEIGAAMGEECRKEKVAVLLGPAANIKRSPLCGRNFEYISEDPFLTGEIAAALIKGVQKLGVGTSLKHYAVNNQEKRRMTINAVVDERAFREIYLAGFEKAVREAKPWTLMCSYNKINGTYASENKKLLTDILRDEWAYQGLVMTDWGASNNRLEGIKAGLDLQMPGPDADNDKRIIEAVKSGALSIEDLDKVVARVVDLIIKAGEGDSIGFACDMEAHHLLARRAAAESAVLLKNDENILPLVPGKTLAVIGAFAISPRYQGAGSSKINPSHLDKAFDAIMRTGIKAEYAPGYSLEAGSGVNEKLIAEAAKLAGEKDSAVVFAGLPDEYESEGFDRASMDMSESHNKLIEAVAKANPNTVVVLQLGSPVALPWADKVKGILLLYLSGQAGGGAAADLLTGNACPGGKLAETWPLALEDNPSYGNFPGSTKTVEYRESIFAGYRWYDALEKEVRYPFGFGLSYTSFEYSDLKLGTSAEAKDNFKKGDALKVSFTVKNTGSREGSETAQLYIAPDASVLFRAKKELKGFEKLHLKPGESKTVTLILDERSFAYYNVQAKDWSLEGGLYRILIGASSRDIRLEGKLELTGDKRETAFAFLKGGRPVFDDASFKAIYGAELPPKERLPGEPFTVNTSVEEIKDTPIGKALFGMAVQGLEQAFGKEKSDLKVMMESMLMDMPLRGLGMMSGGRLTPPVIEALVEALNGKPNPIASGLLGMK
B1: the “Experiment 5-1 % conv” value in experiment [1] is recorded as 77.5%. Also, in experiment [2], the “Experiment 5-3 % conv” value is listed as less than 0.5%. The “Experiment 5-2 % conv” value in experiment [3] is listed as less than 0.5%.

B2: 888 (protein)
chain: MTESVAHLRPLLDALTLEQKAALVQGADFWTTVPLPEIGLRAMTLSDGPSGVRGPRWDEREPSLNLPSGSALAASWDVDLAYRYGAAAASEARRKGVDVVLGPTINLHRSPLGGRHFECFSEDPELTAELAAAYVRGMQDNGVAATPKHYVANDSETDRFTVDVDVDDRALRELYLAPFERAVEAGAWSVMSAYNAVDGVTMTENDLLETPLNSEWGFDGVVVSDWTAVRSLDAVAAAQDLAMPGPAPAWADLLAAVRDGRVQEADLDRKVLRLLLLAERVGALEGSTALEPAPVDAEAFAREAGIEGTVLLRNTGALPLDVAAIRSIAVIGHNARDARTQGGGSATVLPERTVSPLDGLREALPEADLRYEIGAVVQEGVAEIPVAQLRNPETGEPGLRVRFLDEDGAELFSEDRRSTALVWFGGDAPVAASSRVVFETVFTPAETGEIQLGFAGANPGRLYVDDRLVLDDTPVIEGTDLGAAFLNPPSLTAGVSVEQDTPIRVRVEFTLARGGALAGALSATVGIAPEATDPEALIARAVEAAAAADVAVVVVGTNSKVESEGYDRIDLDLPGRQDDLVRAVAATGTPVVVVVNAGSPVVLPWADEVSAIVQGYFGGQEFGHALADVLTGAAEPGGRLPTTWPATLADVPVQDVTPQDGVLTYGEGIHVGYRAWLKDAATPAFPFGHGLGYTTWSWGAAHRHGDAVDVTVRNTGDRAGKQVVQVYAERGDSSVDRPVRWLVGFATVHAEPGETVTATVPVPGRRLAHWADGWVVEPGAYTLRAGASVDDLPLALEWTVAE
modifications: uncultured Microbacterium sp.
As for B2, the “Experiment 5-1 % conv” value in experiment [1] was found to be 78.0%. In addition, the “Experiment 5-3 % conv” value in [2] is on record as less than 0.5%. Further, in [3], the “Experiment 5-2 % conv” value is reported as less than 0.5%.

B3: 804 (protein, listed as Microbacterium trichothecenolyticum)
chain: MTETATSTHTDSVQHLVPLLDRLTLEQKAALVQGADFWTTVPLPEIGLRAMTLSDGPAGVRGPRWDEREPSLNLPSGSALAASWDVDLAYRYGAAAASEARRKGVDVVLGPTINLHRSPLGGRHFECFSEDPELTAELAAAYVRGLQDNDVAACPKHYVANDSETDRFTVDVRVDERALRENYLAPFERAVDAGAWTIMSAYNAVDGVTMTENDLLETPLNSEWGFDGVVISDWTAVRSLDSVPAAQDLAMPGPAPAWADLVAAIRDGRLNEADLDRKVLRVLLLAQRVGALGEREPREPAPLDGPAFAREAAIEGTVLLRNEGVLPLDASSLGRVAVIGQNAREARTQGGGSATVIPESVVSPLDAIRAAVPGADVGFEIGAVVQEGVAEIPLAHLTNPATGEAGIRVAFFDADGTELFAENRRSTALVWFGGDAPIAASATVVFETLYTPAETGDIELGFAGANPGKLYVDGQLVLDDSPVIEGTDLGAAFLNPPSITATVAVEAGRETAVRVEFSRESHGALSGALSATLGIAPERTDADELIARAVAEAAASDLAIVVVGTNSKVESEGYDRTSLDLPGRQDDLVRAVAATGTPTVVVVNAGSPVVLPWAEDVAAVVQGYFGGQEFGHAIADVLTGAAEPGGRLPTTWPAALADVPVTEVVPTDGRLEYREGLHIGYRAWLKADAVPAFAFGHGLGYTTWSWGAAQRTGDTVEVTLANTGHRRGKQVVQVYAERPESAVERPERWLVGFATVHAAPGETVTATIPVPARRLAHWAGEWTVESGAYTLRAGASVADLPLSLEWRIAS
On to B3, for which the “Experiment 5-1 % conv” value in [1] was found to be 83.2%. In addition, the “Experiment 5-3 % conv” value in experiment [2] is given as less than 0.5%. Moreover, the “Experiment 5-2 % conv” value in experiment [3] is on record as less than 0.5%.

B4: 1017 (protein, listed as Kribbella flavida)
chain: MSFPAAPARLRFEHRTDPGPVLGIGTATPRLSWQVPTAPDDYRQAGYEVEIARGDAAPEQYTVDSADQVLVPWPGTPLAARESATVRVRVRGDGDWSQWSDPATVEAGLLSADDWTARFVSPRENAGHEAPAPLIGGVIDLPADIAQARLYATAHGIYEPTLNGTRVGDEQLAPGWTAYEQRLRYQTYDVTDLVAPGENRLELLVGNGWYRGRLGFHGKHSLYGDRLAVLAQLEVTTATGEVKVLASDGTWTTRETNVLADDLYDGQHVDLRRTLGEPGPVDVLDADLSLLVAPDGPPVRVTDVLPAKAVTTSPAGKTLVDFGQNVVGRLRLRVRGGAAGDEIVLRHAEVLEDGELGVRPLRTAKATDSFVLAGPDEVTLEPTLTFHGFRYAEITGVPDLRAEDVEAVVVGSDLRRTGWFESSHPLLDRFHENVVWGMRGNFLDVPTDCPQRDERLGWTGDIQVFSPTASFLFDTAGFLTNWLADLIAEQHKDGSVPFVVPDVLRQPGPATAAWGDAATIVPWVLYERTGDAGLLARQLPSMRAWVDRMAGLAGDDLLWVGGFQFGDWLDPTAPPDDPFRAKADPDVLATAHLARSAEVVALAAEVVGAGELAREYAELAARVRQAFAAEYTTGSGRVLSDAATNYALALQWALLPTEAQRKRAGERLADLVRTAGFRISTGFVGTPLMADALADSGHPDLAYRLLLETGCPSWLYAVTMDATTVWERWDSMLPDGSINPGQMTSFNHYALGAVADWMHRRVAGLAPGDPGYRRIVVDPLFTAHLTKASARHLTPYGEAAVAWSRSGGRVRLEVTVPVGARARVAVPGESAPVEVGHGTHEWTADDVYGETPPLPADATIRQLIDHEPSWTTLAAAATRTGIVADDAELAGRLERYLDHPATELVDAVSPRGFSPSAEALQAELDSVLGR
With B4, the “ratio PP/QS-21” value in experiment [4] was 0.19. Also, the “Peak57 (PAR %)” value in experiment [5] turned out to be 0.004%. Besides, the “Peak75 (PAR %)” value in [6] is recorded as 0.000%. The “Left Peak” value in experiment [7] (mainly QS-17 family, negative control 27%) was 17%; in experiment [9] (mainly QS-17 family, negative control 24%) it was 6%. Besides, the “Middle Peak” value in experiment [7] (mainly QS-18 and desglucosyl-QS-17 family, negative control 48%) turned out to be 56%; in experiment [9] (mainly QS-18 and desglucosyl-QS-17 family, negative control 50%), 63%. Further, the “Right Peak” value was 27% in experiment [7] (setting [10]) and 31% in [9] (setting [10]). The “QS-17 (PAR %)” value in experiment [8] turned out to be 0.017%.
